Assay results reported in publication PMC10501187.

Target: GABARAP (UniProt O95166)
Assay: GST-GABARAP pull-down from cell lysate
Settings: reference: wild type

Substance | binding against the reference (sites S65) | binding against the reference (sites T54)
ORP8 (from UniProt Q9BZF1) S65A | weaker | –
ORP8 (from UniProt Q9BZF1) T54A | – | weaker
